Patent US20020032166A1, “Biocompatible cationic detergents and uses therefor” (University Technology Corporation, priority 1992, published 2002)
Where “and” joins values, the source holds several entries; their conditions need not be identical. Equal values may be shown once. Read-outs that look alike come from different tables or passages of the source.

How the values were obtained:
[1] = Thermal denaturation / melting point followed at 222 nm (CD, absorbance); format: physicochemical
Procedure: Both circular dichroism (CD) signal and light scattering (as measured by changes in absorbance) were measured at 222 nm and the melting point determined by an inflection point in the measured scan.

[2] = SDS-insulin complex
Procedure: (§3) Apparent partition coefficients were measured by dissolving a peptide in 1.25 ml of an aqueous solution. Before SDS addition, the pH was measured on a Beckman pH meter. Upon addition of an SDS solution, the solutions turned cloudy and a precipitate formed immediately. An equal volume of 1-octanol was added and the mixtures agitated, and then left undisturbed for several hours. Prior to analysis, the tubes were spun for 10 minutes at 4000 g. Each layer was removed and the absorbance measured on a Beckman DU-64 UV-visible spectrophotometer using 1 cm quartz cells. All apparent partition coefficients were corrected for changes in pH with differing SDS concentrations.

[3] = aqueous solution; cited from earlier work
[4] = Apparent solubility of HIP complexes in organic solvents
[5] = Partitioning of anionic compounds with arginine esters; format: physicochemical
Procedure: Stock solutions of the arginine esters were made by first dissolving the powder in 0.1 N HCl to give a 10 mM solution and then raising the pH to a value between 5 and 6. The pH should not be raised above 8.
Anionic compounds were dissolved in pH 5.5 buffer (10 mM bis-tris propane, 10 mM CaCl2, 10 mM KCl). Appropriate amounts of the stock solution of arginine ester (see above), the anionic compound and buffer were mixed so that the final concentration of the anionic material was 1 mg/mL. An equal volume of organic solvent was added, and the samples were vortexed for 15 seconds on high speed. Layers were separated by centrifugation at 4000 rpm for 5 minutes. Concentrations of the anionic material in the aqueous and organic layers were determined by UV spectroscopy on a Beckman DU-64 series spectrophotometer.

[6] = Apparent water/1-octanol partition coefficient of SDS hydrophobic ion pair complexes
Excerpt: The relative solubilities in two phases is given in terms of an apparent partition coefficient. The apparent partition coefficient is defined as the ratio of the equilibrium concentration in an organic phase to that in an aqueous phase. The actual value of the apparent partition coefficient, P, is dependent on the two solvent systems employed. In all cases herein described, the organic phase is 1-octanol and the aqueous phase is water alone or with a minimal amount of HCl added.
as §3
Results are described as logarithms of the apparent partition coefficient. A log P value of 0 means that the compound is equally soluble in water and the organic phase.

COS-7 cells [7] = assay: Cytotoxicity, MTS cell proliferation assay; format: cell-based, green monkey; settings: for IC50: Chlorocebus sabaeus, 2-6 h exposure, 72 h growth, read-out: IC50 (half-maximal growth inhibition)
Excerpt: (§1) The cytotoxicity of arginine dodecyl ester was investigated in cell culture with two types of cells (see Cory et al., Cancer Commun., 3, 207-212 (1991)): CCRF-CEM cells, a human T-cell leukemia cell line that grows in suspension (obtained from the American Type Culture Collection, ATCC); and a green monkey kidney cell line (COS-7) that grows in monolayers (also obtained from ATCC). For comparison, the cells were also exposed to […] bromide (DTAB) (Sigma).
(§2) Cells were plated into 96-well plates (Corning) in a total of 200 μL Dulbecco's modified minimal essential medium for COS-7 cells, RPMI 1640 for CEM cells, supplemented with penicillin G (50 U/ml), streptomycin sulfate (50 μg/ml), and 10% fetal calf serum, at 10,000 cells/well for COS-7 amd 50,000 cells/well for CEM cells. The plates were incubated at 37° C. for 24 hours after plating. The cells were then exposed to various concentrations of the detergents. Each detergent concentration was used in 8 replicate wells. After 2-6 hours, media/detergent solutions were aspirated, and the wells were washed twice with PBS. For CEM suspension cells, centrifugation of the suspension at 1000×g for 5 min between each wash was required. After washing, 200 μL of fresh medium were added, and the cells were incubated for 72 hours. After 72 hours, cell proliferation was determined using the Promega CellTiter 96 AQueous Non-Radioactive Cell Proliferation Assay.
CC-CHOL was tested for cytotoxicity as described in Example 38 using COS-7 and JEG-3 cells. JEG-3 cells are a human choriocarcinoma cell line available from ATCC. The culture medium was Eagle's minimum essential medium containing 10% serum.

CCRF-CEM cells = assay: Cytotoxicity, MTS cell proliferation assay; format: cell-based, human; settings: for IC50: Homo sapiens, 2-6 h exposure, 72 h growth, read-out: IC50 (half-maximal growth inhibition)
Excerpt: as §1, §2

[8] = Solubility of arginine octyl ester powder; format: physicochemical
[9] = Surface tension, critical micelle concentration; format: physicochemical; settings: in 0.1 N HCl
Procedure: Surface tension was measured using a Fisher surface tensiometer. Briefly, a platinum iridium ring with a diameter of 6 cm was lowered into the appropriate dilution of detergent in 0.1 N HCl. Surface tension was read at the point where the force on the ring upwards caused the ring to break contact with the liquid surface.

COS-7 cells [10] = assay: Transfection of pRSV400luc plasmid, luciferase activity; format: cell-based, green monkey; settings: no liposomes or helper lipids
Excerpt: The plasmid used was pRSV400luc. It was obtained from Dr. David Gordon, Div. Endocrinology, University of Colorado School of Medicine, Denver, Colo. It was propagated in Escherichia coli strain DH5a (ATCC), isolated by a standard alkaline-SDS lysis procedure, and purified twice by isopycnic centrifugation on CsCl gradients (Sambrook et al., Molecular Cloning: A Laboratory Manual (Cold Spring Harbor Laboratory) (1989). COS-7 cells at approximately 50,000 cells per 60 mm diameter plate (Falcon) were used for transfection. Control experiments were done with Lipofectamine (GIBCO/Life Technologies, Gaithersburg, Md.).
In 200 total μL of serum-free medium, plasmid (20 μg) and Lipofectamine or arginine dodecyl ester were mixed and allowed to interact for 45 minutes. The volume was then brought to 1 mL with serum-free medium. Plates with cells were washed with serum-free medium. […]
After allowing cells to grow and express gene product for 36-50 hours, the cells were harvested. […] Intensity of luminescence should be proportional to the amount of expressed luciferase and, therefore, the efficiency of transfection. “Background” is the reading from just the substrate mixture on the luminometer before addition of cell lysate. […] Any reading over 100 units is considered significant.

insulin: insulin, a hydrophilic protein; in Table 1 and in 1-octanol present as SDS complex
Tm in 1-octanol above that observed in water ([1]; 1-octanol vs water): more than 30 degrees | Log P ([2]; organic solvent 1-Chlorooctane): not detectable | Log P ([2]; organic solvent 1-octanol): ≧ 1.2 | Log P ([2]; organic solvent CCl4): not detectable | Log P ([2]; organic solvent CH2Cl2): not detectable | Log P ([2]; organic solvent Dimethoxyethane): not detectable | Log P ([2]; organic solvent Ether): not detectable | Log P ([2]; organic solvent Hexane): not detectable | Log P ([2]; organic solvent Mineral Oil): not detectable | Tm of thermal denaturation [3]: about 65 °C | Apparent Sol. ([4]; SDS-insulin complex in 1-Chlorooctane): insoluble | Apparent Sol. ([4]; SDS-insulin complex in 1-octanol): ≧ 1.0 mg/ml | Apparent Sol. ([4]; SDS-insulin complex in CCl4): insoluble | Apparent Sol. ([4]; SDS-insulin complex in CH2Cl2): insoluble | Apparent Sol. ([4]; SDS-insulin complex in DMF): ≧ 1.0 mg/ml | Apparent Sol. ([4]; SDS-insulin complex in Ethanol): ≧ 1.0 mg/ml | Apparent Sol. ([4]; SDS-insulin complex in Ether): insoluble | Apparent Sol. ([4]; SDS-insulin complex in Ethyl acetate): insoluble | Apparent Sol. ([4]; SDS-insulin complex in Hexane): insoluble | Apparent Sol. ([4]; SDS-insulin complex in Methanol): ≧ 1.0 mg/ml | Apparent Sol. ([4]; SDS-insulin complex in Mineral Oil): insoluble | Apparent Sol. ([4]; SDS-insulin complex in NMP): ≧ 1.0 mg/ml | Apparent Sol. ([4]; SDS-insulin complex in PEG 400): ≧ 0.2 mg/ml | Apparent Sol. ([4]; SDS-insulin complex in Propylene Glycol): ≧ 0.5 mg/ml | Apparent Sol. ([4]; SDS-insulin complex in TMP): ≧ 0.2 mg/ml | Apparent Sol. ([4]; SDS-insulin complex in Trifluoroethanol): ≧ 0.5 mg/ml | Apparent Sol. ([4]; SDS-insulin complex in Trimethyl phosphate): ≧ 0.15 mg/ml | Apparent Sol. ([4]; SDS-insulin complex in i-Propanol): ≧ 1.0 mg/ml

Nc1ncnc2c1ncn2[C@@H]1O[C@H](COP(=O)(O)OP(=O)(O)OP(=O)(O)O)[C@@H](O)[C@H]1O [adenosine triphosphate]
log p ([5]; octanol/pH 5.5 buffer, pH 5.5, ester C12, detergent:anionic compound 1:1, solvent octanol, read-out: log p): -1.48 | log p ([5]; octanol/pH 5.5 buffer, pH 5.5, ester C12, detergent:anionic compound 3:1, solvent octanol, read-out: log p): 0.022 | log p ([5]; octanol/pH 5.5 buffer, pH 5.5, ester none, solvent octanol, pH 5.5 buffer, read-out: log p): -3.23

bovine serum albumin: bovine serum albumin, anionic test protein
partitioning into octanol layer ([5]; arginine dodecyl ester added, octanol): none would partition into octanol layer

Gly-Phe-NH2
partitioning into 1-octanol with SDS ([6]; pH 7 / neutral pH): readily partitions into 1-octanol

hGH: human growth hormone; precipitate with SDS at pH 2
solubility in 1-octanol (pH 2): not found to be soluble | aqueous solubility on addition of SDS (pH 7.8): not affected

insulin-SDS complex: hydrophobic ion pair complex of insulin with sodium dodecyl sulfate
structure after prolonged heating ([1]; 1-octanol, 70° C. for more than 1 hour): appears to maintain its native structure | melting point in 1-octanol ([1]; SDS:insulin molar ratio 6:1, 200 ug/ml): about 116 °C | melting point in 1-octanol, CD scan at 222 nm ([1]; SDS:insulin molar ratio 9:1 (FIG. 10)): 106 °C | melting point in 1-octanol, absorbance scan at 222 nm ([1]; SDS:insulin molar ratio 9:1 (FIG. 11)): 106 °C

NC(=O)CC[C@@H]1NC(=O)[C@H](Cc2ccccc2)NC(=O)[C@H](Cc2ccc(O)cc2)NC(=O)[C@@H](N)CSSC[C@@H](C(=O)N2CCC[C@H]2C(=O)N[C@@H](CCCN=C(N)N)C(=O)NCC(N)=O)NC(=O)[C@H](CC(N)=O)NC1=O [AVP, 8-Arg-vasopressin]
increase of apparent partition coefficient on SDS addition ([6]; 1-octanol/water, stoichiometric SDS): nearly four orders of magnitude

Gly-Phe
partitioning into 1-octanol with SDS ([6]; pH 3): mirrors the marked increase seen for Gly-Phe-NH2 | partitioning into 1-octanol with SDS ([6]; pH 7 / neutral pH): little enhancement of the partition coefficient

CCCCCCCCCCCCCC[N+](C)(C)C [DTAB, tetradecyltrimethylammonium bromide, reference compound]
IC50 (COS-7 cells [7]): 80 µM | IC50 (CCRF-CEM cells): 20 µM

CCCCCCCCOC(=O)[C@@H](N)CCCNC(=N)N [arginine octyl ester]
solubility in HCl ([8]; HCl): would only dissolve in 0.1 N or stronger HCl | solubility in organics ([8]; alcohols, hydrocarbons, aromatics, DMF, pyridine): insoluble | solubility in water ([8]; water): insoluble | critical micelle concentration (cmc) [9]: about 6 mM and ~2.2 mg/ml

CCCCCCCCCCCCOC(=O)[C@@H](N)CCCNC(=N)N [arginine dodecyl ester]
toxicity relative to DTAB (COS-7 cells [7]): approximately two-fold less toxicity | IC50 (COS-7 cells [7]): 175 µM | transfection of plasmid (COS-7 cells [10]): promoted transection of the plasmid in a concentration and time dependent manner | toxicity relative to DTAB (CCRF-CEM cells): seven-fold less toxicity | IC50 (CCRF-CEM cells): 150 µM | critical micelle concentration (cmc) [9]: approximately 0.3 mM and ~0.10 mg/ml

Cc1ccc(S(=O)(=O)[O-])cc1.[Na+] [p-toluenesulfonic acid, sodium salt]
log p ([5]; ester C8 (arginine octyl ester), solvent octanol, pH 5.5 buffer): -0.353 | log p ([5]; ester C8, solvent isooctane, pH 5.5 buffer): -2.2 | log p ([5]; ester C12 (arginine dodecyl ester), solvent octanol, pH 5.5 buffer): -0.336 | log p ([5]; ester none, solvent isooctane, pH 5.5 buffer): -2.7 | log p ([5]; ester none, solvent octanol, pH 5.5 buffer): -1.62
